The labels stand for the following.
B1: Proto-oncogene tyrosine-protein kinase LCK (Mus musculus), P06240 (parent)
chain: MGCVCSSNPEDDWMENIDVCENCHYPIVPLDSKISLPIRNGSEVRDPLVTYEGSLPPASPLQDNLVIALHSYEPSHDGDLGFEKGEQLRILEQSGEWWKAQSLTTGQEGFIPFNFVAKANSLEPEPWFFKNLSRKDAERQLLAPGNTHGSFLIRESESTAGSFSLSVRDFDQNQGEVVKHYKIRNLDNGGFYISPRITFPGLHDLVRHYTNASDGLCTKLSRPCQTQKPQKPWWEDEWEVPRETLKLVERLGAGQFGEVWMGYYNGHTKVAVKSLKQGSMSPDAFLAEANLMKQLQHPRLVRLYAVVTQEPIYIITEYMENGSLVDFLKTPSGIKLNVNKLLDMAAQIAEGMAFIEEQNYIHRDLRAANILVSDTLSCKIADFGLARLIEDNEYTAREGAKFPIKWTAPEAINYGTFTIKSDVWSFGILLTEIVTHGRIPYPGMTNPEVIQNLERGYRMVRPDNCPEELYHLMMLCWKERPEDRPTFDYLRSVLDDFFTATEGQYQPQP

Variants of B1 are the subject of the first assay. As to conditions: with cd4_mouse Cd4, P06332.
Chain of cd4_mouse Cd4, P06332 (P06332 whole entry): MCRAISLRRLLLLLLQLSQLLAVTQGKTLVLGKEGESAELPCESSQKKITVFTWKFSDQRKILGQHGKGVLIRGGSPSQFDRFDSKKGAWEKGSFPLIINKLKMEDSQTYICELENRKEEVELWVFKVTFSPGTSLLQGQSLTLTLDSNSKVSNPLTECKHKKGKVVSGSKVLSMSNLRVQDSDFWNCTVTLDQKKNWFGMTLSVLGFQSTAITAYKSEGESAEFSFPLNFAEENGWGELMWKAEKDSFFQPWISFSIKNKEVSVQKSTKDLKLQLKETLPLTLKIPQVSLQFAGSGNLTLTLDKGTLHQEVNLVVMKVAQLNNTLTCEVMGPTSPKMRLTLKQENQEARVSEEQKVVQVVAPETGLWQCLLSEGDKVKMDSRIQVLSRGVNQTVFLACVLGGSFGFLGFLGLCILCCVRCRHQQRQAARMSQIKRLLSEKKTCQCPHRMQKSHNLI
Turning to C20A;C23A, the “effect of a mutation on the interaction” value is listed as “disrupting interaction strength”.

Another assay covers variants of B1. To be noted: with cd8a_mouse Cd8a.
Consider C20A;C23A, for which the “effect of a mutation on the interaction” value is “disrupting interaction strength”.

The values are drawn from IntAct's records for PubMed 24034254.
